Measured values: patent publication US20170355773A1 (PELICAN THERAPEUTICS, published 2017)

Assays:
[1] = target: T1, TNFRSF25-Fc protein (UniProt Q93038 25-199, biotinylated in the capture ELISA); experiment: capture ELISA: scFv captured on anti-c-myc antibody, biotinylated TNFRSF25-Fc, streptavidin-HRP, OD450
T1 construct: also called TNFRSF25-Fc fusion protein; biotinylated antigen protein
T1 sequence (looked up): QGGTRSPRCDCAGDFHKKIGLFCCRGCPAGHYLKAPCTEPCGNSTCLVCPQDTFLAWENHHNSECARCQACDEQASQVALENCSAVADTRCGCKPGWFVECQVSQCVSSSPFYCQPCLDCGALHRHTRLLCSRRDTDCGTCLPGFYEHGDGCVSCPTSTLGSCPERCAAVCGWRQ

[2] = target: T2, W330-cAb1.hIgG1(35783); experiment: ELISA: coated antibody at 5 ug/ml, TNFRSF25 ECD.hFcHis titrated, detection with anti-his-HRP, absorbance at 450 nm; the concentration is that of the TNFRSF25 fusion
T2 construct: Parent hamster anti-TNFRSF25 antibody made chimeric with human IgFc (hIgG1); also called chimeric anti-TNFRSF25 antibody; chimeric parent antibody

B1: 9A5 (combinatorial scFv clone of W3072-z4C12) (scFv, V domains shown)
VH: EVQLVESGGGLSQPGNSLQLSCEASGFTFSNHDLNWVRQAPGKGLEWVAYISSASGLISYADAVRGRFTISRDNAKNSLFLQMNNLKSEDTAMYYCARDPAYTGLYALDFWGQGTQVTVSS
VL: QPVLTQSPSASASLSGSVKLTCTLSSELSGFTIVWYQQRPDKAPKYVMYLKSDGSHSKGDGIPDRFSGSSSGAHRYLSISNVQSEDDATYFCGAGYTLANQYGWVFGSGTKVTVL
In the case of B1, the “EC50 (read off the curve)” value [1] is reported as about 0.08 µg/mL.

B2: 4B6 (scFv, V domains shown)
VH: EVQLVESGGGLSQPGNSLQLSCEASGFTFSNHDLNWVRQAPGKGLEWVAYISSASGLISYADAVRGRFTISRDNAKNSLFLQMNNLKSEDTAMYYCARDPAYTGLYALDFWGQGTQVTVSS
VL: QPVLTQSPSASASLSGSVKLTCTLSSELSNYTIVWYQQRPDKAPKYVMYLKSDGSHSKGDGIPDRFSGSSSGAHRYLSISNVQSEDDATYFCGAGYTLANQYGWVFGSGTKVTVL
B2 was tested, and the “EC50 (read off the curve)” value [1] was about 0.2 µg/mL.

B3: WBP330-hPro1.ECD.hFcHis (non-mutated) (Fc fusion)
chain: QGGTRSPRCDCAGDFHKKIGLFCCRGCPAGHYLKAPCTEPCGNSTCLVCPQDTFLAWENHHNSECARCQACDEQASQVALENCSAVADTRCGCKPGWFVECQVSQCVSSSPFYCQPCLDCGALHRHTRLLCSRRDTDCGTCLPGFYEHGDGCVSCPTSTLGSCPERCAAVCGWRQMF
notes: also called recombinant TNFRSF25 polypeptide; non-mutated WBP330-hPro1.ECD.hFcHis; not shown: human Fc and 6His tag (hFc-6His)
An EC50 [2] of 4.76 µg/mL was found for B3 in this work.
